This assay addresses T1, human serum albumin (human, UniProt P02768 25-609).
T1 construct: also called HSA
Kind of assay: SPR (Biacore), ligand immobilized on chip. A general note: SPR reads the build-up and loss of mass on a sensor chip optically.

B1: scFvHSA (scFv)
scFv: EVQLLESGGGLVQPGGSLRLSCAVSGIDLSNYAINWVRQAPGKGLEWIGIIWASGTTFYATWAKGRFTISRDNSKNTVYLQMNSLRAEDTAVYYCARTVPGYSTAPYFDLWGQGTLVTVSSGGGGSGGGGSGGGGSDIQMTQSPSSVSASVGDRVTITCQSSPSVWSNFLSWYQQKPGKAPKLLIYEASKLTSGVPSRFSGSGSGTDFTLTISSLQPEDFATYYCGGGYSSISDTTFGGGTKVEIKRTVQASGSHHHHHH
notes: also called anti-HSA scFv
As for B1, the binding result is “binds”.

The record behind these values is patent EP4541444A1 (Cytiva BioProcess R&D AB, dated 2025).
